# Numbered stars: 1 amine (or outer) side, 2 acyl side, 3 side chain; on linkers, the order of the positions; unused ones are H or OH. Bridge positions count the residues as written; N and C are the ends. Side chains are listed from the residue outwards. Ends that are not written are not given here. * marks the point of attachment. C20 diacid = O=C(O)CCCCCCCCCCCCCCCCCCC(=O)*; γGlu = O=C(O)[C@H](CCC(=O)[*:2])N[*:1]; AEEA = NCCOCCOCC(=O)O
# T1: rat calcitonin receptor (rat, UniProt P32214 25-516)
# T1 construct: whole, on cells; Membranes prepared from transiently transfected BHK tk'ts 13 cells (Assay VIII); also called rCTR; rCT
# T1 sequence (looked up): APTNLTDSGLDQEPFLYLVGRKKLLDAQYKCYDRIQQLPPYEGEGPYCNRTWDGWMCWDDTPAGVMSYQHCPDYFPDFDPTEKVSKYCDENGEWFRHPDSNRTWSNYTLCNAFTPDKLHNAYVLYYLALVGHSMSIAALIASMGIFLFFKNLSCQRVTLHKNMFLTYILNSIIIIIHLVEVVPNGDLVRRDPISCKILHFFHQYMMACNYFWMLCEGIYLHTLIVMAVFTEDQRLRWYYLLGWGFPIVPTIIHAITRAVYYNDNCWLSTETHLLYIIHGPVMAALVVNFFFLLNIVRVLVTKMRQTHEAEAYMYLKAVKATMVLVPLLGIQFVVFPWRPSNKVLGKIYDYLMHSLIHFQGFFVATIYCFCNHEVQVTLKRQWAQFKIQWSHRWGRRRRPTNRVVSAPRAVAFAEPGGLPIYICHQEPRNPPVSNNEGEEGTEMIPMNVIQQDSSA
# T2: human calcitonin receptor (human, UniProt P30988 25-474)
# T2 construct: whole, on cells; Membranes prepared from a stably transfected BHK cell line (Assay VII); also called hCTR; hCT
# T2 sequence (looked up): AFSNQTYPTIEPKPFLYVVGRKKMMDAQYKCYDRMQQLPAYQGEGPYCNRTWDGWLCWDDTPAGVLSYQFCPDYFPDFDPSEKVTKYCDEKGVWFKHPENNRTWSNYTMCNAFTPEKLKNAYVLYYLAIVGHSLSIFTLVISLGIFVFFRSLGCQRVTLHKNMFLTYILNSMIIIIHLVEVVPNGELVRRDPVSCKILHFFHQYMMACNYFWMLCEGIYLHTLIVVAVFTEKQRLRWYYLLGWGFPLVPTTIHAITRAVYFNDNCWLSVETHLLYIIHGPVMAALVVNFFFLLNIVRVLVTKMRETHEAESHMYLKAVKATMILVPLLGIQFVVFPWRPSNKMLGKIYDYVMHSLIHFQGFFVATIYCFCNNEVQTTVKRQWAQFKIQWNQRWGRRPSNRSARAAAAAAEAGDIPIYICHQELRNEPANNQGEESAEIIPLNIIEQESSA
# T3: rat amylin receptor (rat calcitonin receptor + rat RAMP 3) (rat, UniProt P32214 25-516; Q9JJ73 23-147)
# T3 construct: whole, on cells; Membranes prepared from transiently transfected BHK tk'ts 13 cells (Assay VI); also called rAmylin-R; rAmylin
# T3 sequence (looked up) 1: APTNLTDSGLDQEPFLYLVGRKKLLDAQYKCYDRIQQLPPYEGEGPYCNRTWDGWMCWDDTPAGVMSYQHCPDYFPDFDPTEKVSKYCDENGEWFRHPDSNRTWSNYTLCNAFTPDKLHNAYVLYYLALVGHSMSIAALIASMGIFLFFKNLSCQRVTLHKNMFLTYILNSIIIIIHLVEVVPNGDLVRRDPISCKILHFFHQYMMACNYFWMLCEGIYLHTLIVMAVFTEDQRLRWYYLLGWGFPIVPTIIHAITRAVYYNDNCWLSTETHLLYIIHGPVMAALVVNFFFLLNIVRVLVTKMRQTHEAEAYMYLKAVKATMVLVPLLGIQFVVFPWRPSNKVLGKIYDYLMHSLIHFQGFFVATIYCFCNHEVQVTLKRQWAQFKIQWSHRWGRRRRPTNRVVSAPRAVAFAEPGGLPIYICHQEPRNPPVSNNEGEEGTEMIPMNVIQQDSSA
# T3 sequence (looked up) 2: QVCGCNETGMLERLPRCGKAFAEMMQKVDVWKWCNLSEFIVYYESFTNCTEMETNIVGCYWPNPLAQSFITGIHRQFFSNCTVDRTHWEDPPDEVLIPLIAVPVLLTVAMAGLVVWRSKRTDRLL
# T4: human calcitonin receptor (human, UniProt P30988 25-474)
# T4 sequence (looked up): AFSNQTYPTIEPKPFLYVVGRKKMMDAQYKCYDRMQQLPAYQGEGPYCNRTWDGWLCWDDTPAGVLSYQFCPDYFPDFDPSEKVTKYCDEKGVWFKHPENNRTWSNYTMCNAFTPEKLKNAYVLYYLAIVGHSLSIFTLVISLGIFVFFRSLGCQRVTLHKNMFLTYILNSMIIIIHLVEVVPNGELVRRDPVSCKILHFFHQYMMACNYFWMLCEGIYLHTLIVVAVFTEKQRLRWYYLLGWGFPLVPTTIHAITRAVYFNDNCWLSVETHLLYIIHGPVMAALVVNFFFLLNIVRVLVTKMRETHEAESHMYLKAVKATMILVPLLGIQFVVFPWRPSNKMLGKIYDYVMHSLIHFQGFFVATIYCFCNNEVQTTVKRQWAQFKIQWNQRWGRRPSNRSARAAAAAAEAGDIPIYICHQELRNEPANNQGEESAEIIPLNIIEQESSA
# Tests used:
# rat calcitonin receptor [1] = molecular target: T1, rat calcitonin receptor; assay: SPA competition vs 125I-calcitonin, membranes of BHK cells with rat calcitonin receptor (Assay VIII)
# rat calcitonin receptor [2] = molecular target: T1, rat calcitonin receptor; assay: ratio of binding IC50s: rat calcitonin receptor / rat amylin receptor (reference)
# [3] = molecular target: T2, human calcitonin receptor; assay: ratio of binding IC50s: human calcitonin receptor / human amylin receptor (reference)
# How it was run: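 IC₅₀ values were derived by one-site competition analysis of SPA counts. Cell membranes (35 ng/μL) with SPA beads were incubated with test compounds for 120 min at 25° C in Hepes buffer, pH 7.4, containing CaCl2, MgCl₂, OA and Tween20.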
# [4] = molecular target: T3, rat amylin receptor (rat calcitonin …); assay: SPA competition vs 125I-rat amylin, membranes of BHK cells with rat calcitonin receptor + rat RAMP3 (Assay VI)
# [5] = molecular target: T4, human calcitonin receptor; assay: cell-based or functional assay
IC50 (rat calcitonin receptor [1]) [nM],Ratio rCT/rAmylin binding (rat calcitonin receptor [2]),Ratio hCT/hAmylin binding [3],IC50 [4] [nM],hCTR funct. EC50 [5] [nM],Binder
34.2,96.5,60.8,0.355,,"K([γGlu-C20 diacid])CNTATCATQRLAHFLRHSSPNFGAIPSSTNVGSNTY-NH2 (disulfide 2-7; N-terminus assumed; SMILES CC[C@H](C)[C@H](NC(=O)[C@H](C)NC(=O)CNC(=O)[C@H](Cc1ccccc1)NC(=O)[C@H](CC(N)=O)NC(=O)[C@@H]1CCCN1C(=O)[C@H](CO)NC(=O)[C@H](CO)NC(=O)[C@H](Cc1c[nH]cn1)NC(=O)[C@H](CCCNC(=N)N)NC(=O)[C@H](CC(C)C)NC(=O)[C@H](Cc1ccccc1)NC(=O)[C@H](Cc1c[nH]cn1)NC(=O)[C@H](C)NC(=O)[C@H](CC(C)C)NC(=O)[C@H](CCCNC(=N)N)NC(=O)[C@H](CCC(N)=O)NC(=O)[C@@H](NC(=O)[C@H](C)NC(=O)[C@@H]1CSSC[C@H](NC(=O)[C@@H](N)CCCCNC(=O)CC[C@H](NC(=O)CCCCCCCCCCCCCCCCCCC(=O)O)C(=O)O)C(=O)N[C@@H](CC(N)=O)C(=O)N[C@@H]([C@@H](C)O)C(=O)N[C@@H](C)C(=O)N[C@@H]([C@@H](C)O)C(=O)N1)[C@@H](C)O)C(=O)N1CCC[C@H]1C(=O)N[C@@H](CO)C(=O)N[C@@H](CO)C(=O)N[C@H](C(=O)N[C@@H](CC(N)=O)C(=O)N[C@H](C(=O)NCC(=O)N[C@@H](CO)C(=O)N[C@@H](CC(N)=O)C(=O)N[C@H](C(=O)N[C@@H](Cc1ccc(O)cc1)C(N)=O)[C@@H](C)O)C(C)C)[C@@H](C)O, Analogue of human amylin; also called compound 70) [N^ε1-[(4S)-4-carboxy-4-(19-carboxynonadecanoylamino)butanoyl]-[His14,Arg17,Pro21,Pro27]-h-amylin]"
,,,,1.25,"K([AEEA-γGlu-C20 diacid])CNTATCATQRLAHFLRHSSPNFGAIPSSTNVGSNTY-NH2 (disulfide 2-7; N-terminus assumed; SMILES CC[C@H](C)[C@H](NC(=O)[C@H](C)NC(=O)CNC(=O)[C@H](Cc1ccccc1)NC(=O)[C@H](CC(N)=O)NC(=O)[C@@H]1CCCN1C(=O)[C@H](CO)NC(=O)[C@H](CO)NC(=O)[C@H](Cc1c[nH]cn1)NC(=O)[C@H](CCCNC(=N)N)NC(=O)[C@H](CC(C)C)NC(=O)[C@H](Cc1ccccc1)NC(=O)[C@H](Cc1c[nH]cn1)NC(=O)[C@H](C)NC(=O)[C@H](CC(C)C)NC(=O)[C@H](CCCNC(=N)N)NC(=O)[C@H](CCC(N)=O)NC(=O)[C@@H](NC(=O)[C@H](C)NC(=O)[C@@H]1CSSC[C@H](NC(=O)[C@@H](N)CCCCNC(=O)COCCOCCNC(=O)CC[C@H](NC(=O)CCCCCCCCCCCCCCCCCCC(=O)O)C(=O)O)C(=O)N[C@@H](CC(N)=O)C(=O)N[C@@H]([C@@H](C)O)C(=O)N[C@@H](C)C(=O)N[C@@H]([C@@H](C)O)C(=O)N1)[C@@H](C)O)C(=O)N1CCC[C@H]1C(=O)N[C@@H](CO)C(=O)N[C@@H](CO)C(=O)N[C@H](C(=O)N[C@@H](CC(N)=O)C(=O)N[C@H](C(=O)NCC(=O)N[C@@H](CO)C(=O)N[C@@H](CC(N)=O)C(=O)N[C@H](C(=O)N[C@@H](Cc1ccc(O)cc1)C(N)=O)[C@@H](C)O)C(C)C)[C@@H](C)O, also called compound 69)"
,,,,1.48,"K([AEEA-C20 diacid])CNTATCATQRLANFLRHSSPNFGAIPSSTNVGHNTY-NH2 (disulfide 2-7; N-terminus assumed; SMILES CC[C@H](C)[C@H](NC(=O)[C@H](C)NC(=O)CNC(=O)[C@H](Cc1ccccc1)NC(=O)[C@H](CC(N)=O)NC(=O)[C@@H]1CCCN1C(=O)[C@H](CO)NC(=O)[C@H](CO)NC(=O)[C@H](Cc1c[nH]cn1)NC(=O)[C@H](CCCNC(=N)N)NC(=O)[C@H](CC(C)C)NC(=O)[C@H](Cc1ccccc1)NC(=O)[C@H](CC(N)=O)NC(=O)[C@H](C)NC(=O)[C@H](CC(C)C)NC(=O)[C@H](CCCNC(=N)N)NC(=O)[C@H](CCC(N)=O)NC(=O)[C@@H](NC(=O)[C@H](C)NC(=O)[C@@H]1CSSC[C@H](NC(=O)[C@@H](N)CCCCNC(=O)COCCOCCNC(=O)CCCCCCCCCCCCCCCCCCC(=O)O)C(=O)N[C@@H](CC(N)=O)C(=O)N[C@@H]([C@@H](C)O)C(=O)N[C@@H](C)C(=O)N[C@@H]([C@@H](C)O)C(=O)N1)[C@@H](C)O)C(=O)N1CCC[C@H]1C(=O)N[C@@H](CO)C(=O)N[C@@H](CO)C(=O)N[C@H](C(=O)N[C@@H](CC(N)=O)C(=O)N[C@H](C(=O)NCC(=O)N[C@@H](Cc1c[nH]cn1)C(=O)N[C@@H](CC(N)=O)C(=O)N[C@H](C(=O)N[C@@H](Cc1ccc(O)cc1)C(N)=O)[C@@H](C)O)C(C)C)[C@@H](C)O, also called compound 91) [N^ε1-[2-[2-[2-(19-carboxynonadecanoylamino)ethoxy]ethoxy]acetyl]-[Arg17,Pro21,Pro27,His34]-h-amylin]"

# Reference: US20140087995A1 (published 2014)
